Laboratory results as given in patent US20150018528A1 (Novo Nordisk, published 2015).

T1: Type II PGLYRP2 on HEK293-6E cells (human, UniProt Q96PD5 22-576)
T1 construct: also called hPGLYRP2; PGRP-L
T1 sequence: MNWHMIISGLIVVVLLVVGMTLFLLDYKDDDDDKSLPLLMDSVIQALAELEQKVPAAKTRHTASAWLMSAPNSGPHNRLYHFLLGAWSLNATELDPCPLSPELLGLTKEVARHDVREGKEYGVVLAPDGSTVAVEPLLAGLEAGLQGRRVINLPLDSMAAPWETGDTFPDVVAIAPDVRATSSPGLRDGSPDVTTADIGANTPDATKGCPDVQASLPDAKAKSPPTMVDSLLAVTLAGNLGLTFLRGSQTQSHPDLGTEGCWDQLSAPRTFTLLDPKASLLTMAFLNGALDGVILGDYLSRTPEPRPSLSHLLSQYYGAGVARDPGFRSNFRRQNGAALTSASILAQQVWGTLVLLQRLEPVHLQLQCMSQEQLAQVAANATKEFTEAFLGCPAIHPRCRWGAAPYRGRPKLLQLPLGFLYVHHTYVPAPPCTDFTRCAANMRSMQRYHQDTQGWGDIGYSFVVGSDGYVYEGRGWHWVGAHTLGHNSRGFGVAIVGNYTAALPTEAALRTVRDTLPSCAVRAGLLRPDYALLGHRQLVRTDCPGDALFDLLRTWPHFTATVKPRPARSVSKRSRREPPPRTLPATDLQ

T2: Type II PGLYRP4 on HEK293-6E cells (human, UniProt Q96LB8 18-373)
T2 construct: also called hPGLYRP4; PGRP-1b
T2 sequence: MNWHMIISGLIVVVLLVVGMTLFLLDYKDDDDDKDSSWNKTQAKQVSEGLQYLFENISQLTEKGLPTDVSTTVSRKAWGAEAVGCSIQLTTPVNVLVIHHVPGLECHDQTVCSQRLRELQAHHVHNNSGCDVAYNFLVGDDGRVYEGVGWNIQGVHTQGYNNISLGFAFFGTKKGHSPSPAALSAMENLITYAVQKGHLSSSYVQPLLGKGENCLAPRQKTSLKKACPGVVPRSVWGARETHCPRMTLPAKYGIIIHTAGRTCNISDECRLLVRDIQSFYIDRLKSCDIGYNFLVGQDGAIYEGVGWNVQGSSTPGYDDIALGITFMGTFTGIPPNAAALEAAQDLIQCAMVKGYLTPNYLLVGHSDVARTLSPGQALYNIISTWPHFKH

T3: recombinant human PGLYRP1 generated in-house (SEQ ID NO: 1) (human, UniProt O75594 22-196)
T3 sequence: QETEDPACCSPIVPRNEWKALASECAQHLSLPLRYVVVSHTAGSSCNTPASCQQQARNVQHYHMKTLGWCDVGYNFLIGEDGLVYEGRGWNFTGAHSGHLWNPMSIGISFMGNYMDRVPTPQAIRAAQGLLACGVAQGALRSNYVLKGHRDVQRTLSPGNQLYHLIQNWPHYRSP

T4: endogenous human PGLYRP1 (neutrophils; RA synovial fluid) (human, UniProt O75594 22-196)
T4 construct: also called PGRP-S; neutrophil-derived PGLYRP1
T4 sequence (looked up): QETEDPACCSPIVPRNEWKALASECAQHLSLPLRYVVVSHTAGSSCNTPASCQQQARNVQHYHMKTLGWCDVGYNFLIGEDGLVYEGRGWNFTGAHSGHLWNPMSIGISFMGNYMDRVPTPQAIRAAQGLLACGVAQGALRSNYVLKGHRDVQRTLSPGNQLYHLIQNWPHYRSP

T5: Type II muPGLYRP1 on HEK293-6E cells (mouse, UniProt O88593 19-182)
T5 construct: whole, on cells; also called mouse PGLYRP1; not shown: Type II membrane anchor; construct is not described in the text
T5 sequence (looked up): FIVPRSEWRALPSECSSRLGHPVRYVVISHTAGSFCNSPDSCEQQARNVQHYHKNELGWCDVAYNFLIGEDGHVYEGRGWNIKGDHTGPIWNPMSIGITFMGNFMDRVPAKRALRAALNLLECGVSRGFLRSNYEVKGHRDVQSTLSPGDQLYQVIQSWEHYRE


Columns and labels:
[1] = molecular target: T1, Type II PGLYRP2 on HEK293-6E cells; test: flow cytometry on transfected HEK293-6E cells
Description: (§1) 51.2090KZ, BD Biosciences, San Jose Calif., USA) for intracellular staining or 2% FBS/PBS for surface staining: cell pellets were resuspended in a 96-well round bottom plate (to begin with: 160,000 cells/well) with 200 μl cytofix/perm buffer for 15 minutes at 22 C., washed twice with 200 μl 1× PermWash Buffer (diluted 10× in DiH20), stained with 50 μl probe diluted to 5 µg/ml in 1× PermWash buffer, incubated for 1 hour at 4 C., cells were then washed with 200 μl 1× PermWash Buffer, a secondary probe was added in 50 μl 1× PermWash buffer, cells were incubated at 4 C. for 30 minutes, washed twice with 200 μl 1× PermWash Buffer, pellets were resuspended in 50 μl 1:1 PBS diluted CytoFix (BD:554655, San Jose, Calif.), incubated for 5 minutes at 22 C., 150 μl PBS/2% FBS was added, centrifuged for 5 minutes at 300 g, washed 1× with 200 μl PBS/2% FBS and resuspended in 100 μl PBS/2% FBS. Binding was analysed using FACS on LSRII (BD, San Jose Calif., USA).

[2] = molecular target: T2, Type II PGLYRP4 on HEK293-6E cells; test: flow cytometry on transfected HEK293-6E cells
Description: as §1

[3] = molecular target: T3, recombinant human PGLYRP1 generated …; test: direct ELISA on PGLYRP1 protein (primary screening of hybridoma supernatants)
[4] = molecular target: T4, endogenous human PGLYRP1 (neutrophils; …); test: crosslinking, immunoprecipitation and LC/MS/MS from human neutrophils; CD83-Fc as control bait
[5] = molecular target: T5, Type II muPGLYRP1 on HEK293-6E cells; test: flow cytometry on transfected HEK293-6E cells
Description: as §1

Binder | ratio of MFI of probe staining over negative control staining [1] | ratio of MFI of probe staining over negative control staining [2] | binding result [3] | also measured
huTREM2.Fc dimer (C0248) (Fc fusion, Entry may hold the hCD33 leader; code tied by the name of the construct only; also called huTrem2.Fc (C0248); hTREM2-Fc6mut dimer) HNTTVFQGVAGQSLQVSCPYDSMKHWGRRKAWCRQLGEKGPCQRVVSTHNLWLLSFLRRWNGSTAITDDTLGGTLTITLRNLQPHDAGLYQCQSLHGSEADTLRKVLVEVLADPLDHRDAGDLWFPGESESFEDAHVEHSISRSLLEGEIPFPPTSGTEPKSSDKTHTCPPCPAPEAEGAPSVFLFPPKPKDTLMISRTPEVTCVVVDVSHEDPEVKFNWYVDGVEVHNAKTKPREEQYNSTYRVVSVLTVLHQDWLNGKEYKCKVSNKALPSSIEKTISKAKGQPREPQVYTLPPSREEMTKNQVSLTCLVKGFYPSDIAVEWESNGQPENNYKTTPPVLDSDGSFFLYSKLTVDKSRWQQGNVFSCSVMHEALHNHYTQKSLSLSPGK | < 1 ratio | < 1 ratio | – | –
M-hPGRPS-2F5 (antibody, V domains shown, Tested as hybridoma supernatant) VH: EVQLVESGGGLVKPGGSLKLSCAASGFSFSDYYMYWVRQTPEKRLEWVAAISDDSTYTYYPDSVKGRFTISRDNAKNNLYLQMSSLKSEDTAMYYCARGGYGNLYAMDYWGQGTSVTVSS VL: QIVLTQSPAIMSASLGERVTMTCTASSSVSSSYLHWYQQKPGSSPKLWIYSTSNLASGVPARFSGSGSGTSYSLTISSMEAEDAATYYCHQYHRSPFTFGSGTKLEIKR | – | – | binds | –
hCD83-G4Sx3-hCD83/Fc6mut (CD83-Fc, hCD83 tetramer) (Fc fusion, also called control construct (CD83); control protein) TPEVKVACSEDVDLPCTAPWDPQVPYTVSWVKLLEGGEERMETPQEDHLRGQHYHQKGQNGSFDAPNERPYSLKIRNTTSCNSGTYRCTLQDPDGQRNLSGKVILRVTGCPAQRKEETFKKYRAEGTGGGGSGGGGSGGGGSTPEVKVACSEDVDLPCTAPWDPQVPYTVSWVKLLEGGEERMETPQEDHLRGQHYHQKGQNGSFDAPNERPYSLKIRNTTSCNSGTYRCTLQDPDGQRNLSGKVILRVTGCPAQRKEETFKKYRAEGALAGTEPKSSDKTHTCPPCPAPEAEGAPSVFLFPPKPKDTLMISRTPEVTCVVVDVSHEDPEVKFNWYVDGVEVHNAKTKPREEQYNSTYRVVSVLTVLHQDWLNGKEYKCKVSNKALPSSIEKTISKAKGQPREPQVYTLPPSREEMTKNQVSLTCLVKGFYPSDIAVEWESNGQPENNYKTTPPVLDSDGSFFLYSKLTVDKSRWQQGNVFSCSVMHEALHNHYTQKSLSLSPGK | – | – | – | binding result [4]: no binding (tested: 100 µg/ml)
huTREML1.Fc dimer (C0246) (Fc fusion, Entry may hold the hCD33 leader; code tied by the name of the construct only; also called huTremL1.Fc (C0246); hTREML1-Fc6mut dimer) QGIVGSLPEVLQAPVGSSILVQCHYRLQDVKAQKVWCRFLPEGCQPLVSSAVDRRAPAGRRTFLTDLGGGLLQVEMVTLQEEDAGEYGCMVDGARGPQILHRVSLNILPPEEEEETHKIGSLAENAFSDPAGSANPLEPSQDEKSIPGTEPKSSDKTHTCPPCPAPEAEGAPSVFLFPPKPKDTLMISRTPEVTCVVVDVSHEDPEVKFNWYVDGVEVHNAKTKPREEQYNSTYRVVSVLTVLHQDWLNGKEYKCKVSNKALPSSIEKTISKAKGQPREPQVYTLPPSREEMTKNQVSLTCLVKGFYPSDIAVEWESNGQPENNYKTTPPVLDSDGSFFLYSKLTVDKSRWQQGNVFSCSVMHEALHNHYTQKSLSLSPGK | < 1 ratio | < 1 ratio | – | ratio of MFI of probe staining over negative control staining [5]: < 1 ratio
huTREML2.Fc dimer (C0247) (Fc fusion, Entry may hold the hCD33 leader; code tied by the name of the construct only; also called huTremL2.Fc (C0247); hTREML2-Fc6mut dimer) GPSADSVYTKVRLLEGETLSVQCSYKGYKNRVEGKVWCKIRKKKCEPGFARVWVKGPRYLLQDDAQAKVVNITMVALKLQDSGRYWCMRNTSGILYPLMGFQLDVSPAPQTERNIPFTHLDNILKSGTVTTGQAPTSGPDAPFTTGVMVFTPGLITLPRLLASTRPASKTGYSFTATSTTSQGPRRTMGSQTVTASPSNARDSSAGPESISTKSGDLSTRSPTTGLCLTSRSLLNRLPSMPSIRHQDVYSGTEPKSSDKTHTCPPCPAPEAEGAPSVFLFPPKPKDTLMISRTPEVTCVVVDVSHEDPEVKFNWYVDGVEVHNAKTKPREEQYNSTYRVVSVLTVLHQDWLNGKEYKCKVSNKALPSSIEKTISKAKGQPREPQVYTLPPSREEMTKNQVSLTCLVKGFYPSDIAVEWESNGQPENNYKTTPPVLDSDGSFFLYSKLTVDKSRWQQGNVFSCSVMHEALHNHYTQKSLSLSPGK | < 1 ratio | < 1 ratio | – | –
M-hPGRPS-2F7 (antibody, V domains shown, Tested as hybridoma supernatant) VH: EVQLQQSGPEVVKPGTSVKMSCKASGYTFTNYVMHWVRQKPGQGLEWVGWINPFNDGTNYNENFKNKATLTSDKSSSTAYMELSSLTSEDSAVYYCARSGFITTLIEDYWGQGTTLTVSS VL: NIVMTQSPKYMSMSVGERVTLTCKASESVGSFVSWYQQKADQSPNLLIYGASNRYTGVPDRFTGSGSARDFTLTISSVQAKDLAEYYCGQYYTHPTFGAGTKLELKR | – | – | binds | –
